According to patent US8426686B2, “Polyunsaturated fatty acid production in heterologous organisms using PUFA polyketide synthase systems” (DSM IP Assets B.V., priority 2006, dated 2013):

Columns and labels:
acyl-CoA synthetases = assay: In vitro activity assay of Schizochytrium FAS-KO cell free homogenate with Triacsin C (HIP extraction, normal phase TLC, phosphorimage); type: biochemical; conditions: FAS-KO sample; Triacsin C 0, 25, 100 or 200 uM for 10 minutes, then ATP and Mg+2, additional 20 minutes; effect at higher concentrations
Experimental: An example of a protocol for in vitro activity assays of both FAS and PUFA synthase activities is as follows. In a final volume of 100 uL, mix the enzyme preparation and Buffer A (volume of these 2 components=90 uL) plus the following components added as a cocktail (in 10 uL) to yield the final concentrations indicated in parenthesis: malonyl-CoA (50 uM—a mixture of cold and malonyl-2-^14C-CoA such that the final concentration of radiolabel is 0.65 μCi/mL), NADH (1 mM), NADPH (1 mM) and acetyl-CoA (10 uM). These components and additional components can be adjusted depending on the requirements of the particular experiments. The assay reactions are carried out in glass tubes in a room temperature (˜21° C.) water bath. The time of incubation is dependant on the experimental requirements. The reactions are stopped by one of two methods depending on the work-up protocol. For conversion of fatty acids to fatty acid methyl-esters (FAMEs) using an acidic method, the reaction is stopped by adding the FAME reagent (see below). For extraction of lipids without derivatization, the reaction is stopped by addition of 125 uL of isopropanol:acetic acid (4:1 v/v) (see below). […]

Schizochytrium = assay: DAGAT gene knock out in Schizochytrium strain B73-8, lipid profile; type: cell-based; conditions: inactivation of the DAGAT gene in Schizochytrium B73-8
Source text: Using the knock out technology described above in Example 1 for FAS in Schizochytrium, the inventors similarly knocked out the DAGAT gene (comprising SEQ ID NO:100) in a Schizochytrium strain, denoted B73-8. […] Accordingly, the inventors concluded that this DAGAT is the primary enzyme responsible for TAG synthesis in Schizochytrium.

yeast = assay: FAME analysis of yeast expressing Schizochytrium PUFA synthase and Het I with co-expressed acyl-CoA synthetase; type: cell-based, Saccharomyces cerevisiae; conditions: data not shown
Source text: More specifically, the yeast expression system described in the Examples above was modified to accommodate introduction of the fifth ACoAS gene (i.e., the yeast also contained OrfsA, B and C of the Schizochytrium PUFA synthase system and a PPTase (Het I from Nostoc)) using 4 vectors. Yeast expression vectors in which two genes can be cloned (the pESC vectors) were obtained from Stratagene. These vectors are similar to and compatible with the pYES vectors described above. […] This provides confirmation that the accumulation of the products of the PUFA synthase in heterologous host can be increased by co-expression of enzymes that may be more efficient at utilization of those products.
In subsequent experiments, ScACS-3, ScACS-5, ScACS-6 and ScACS-8 were also tested in yeast that contained the genes encoding the Schizochytrium PUFA synthase system (e.g., sOrfA, sOrfB and nOrfC, and HetI), using similar methods as described above.

Molecule: CCC/C=C/C/C=C/C=C/C=N/NN=O [Triacsin C]
- radiolabel in the FFA band (loss after addition of ATP and Mg+2) (acyl-CoA synthetases): blocked the loss of radiolabel from the FFA band

B1: DAGAT: Schizochytrium diacylglycerol acyltransferase, SEQ ID NO:100/101; gene knocked out in strain B73-8 (protein, listed as Schizochytrium sp.)
chain: MERPQAQASPARSEARRRRGDRSKGFADEDGETSVNTPNGMQTPYSTSMGSVSSYSSSGDYAMSEAEGSEVDPADDRMGDSIGSKPSSSSVTGRRRLTQEERDYFLRLEKEWREEDAWADQPGSWYSMLAWMPVLIGLRVFNVLLSIAFWPVSFVARVFFGKKIHTVSFWDVPLSRRKQTAVVLLFVMLLPMVVVVYSWTLVLLLFPLTTFPTLCYMVWIIYVDKSPETGSRRPFLRYWKMWRHFANYFPLRLIRTTPLDSRRKYVFCYHPHGIISLGAFGNFATDSTGFSRKFPGIDLRVLTLALNFYCPLLREFLLYLGLCSAAKKSCNQILQRGPGSAIMLVVGGAAESLDSQPGTYRLTLGRKGFVRVALDNGADLVPVLAFGENDVFDTVYLPPNSWARNVQEFVRKKLGFATPIFSGRGIFQYNMGLMPHRRPIIVVVGKPIKMPKIPDELKGRALSTTAEGVALVDKYHEKYVKALRELWNLYKERWAVHRQGSLLIQK
- reduction in TAG (Schizochytrium): ~90%
- reduction in mg FAME/gm biomass (Schizochytrium): ~80%

B2: ScACS-3: Schizochytrium acyl-CoA synthetase, SEQ ID NO:86/87 (protein, listed as Schizochytrium sp.)
chain: MGCSGSKPAAPGEVPAVQGYEVTEEVAPGPYDPEKGPYYVSNKAERREIIFAAKGVASEATTPAMTLSKMFRKAAEASKDEVALAVEWPVPEIGADGKIPDSLPLDKWRTWTFGQYYADSHAMARAIVALGAERFDGVTIFGFNSPFWLMAQMAATLSTTLPAGIYPTDTAEQVRYKLRYTDTAVAFCGVEKEFTMLRAAVEDAPDLKAIVCWAHLPMVKTITREDGSKVKVMSWQEALALGEITPPAEVDARIEAQNPGDCAELVFTSGTTGLPKAVMLSHDNLCFAITSIVSTLEDFGRSGPESHLSYLPLSHIAGQEMDVLLPLVVTAFRESHHAVYFVRPYDLKTGTLIDRVKTVQPTAFLGVPRVYEKIMAKMRAKGASVKGLKKKIVQYSKKKGLEYQRNLEVGGSGGKPSNYGFAEKKVLSKVKEALGFTRLKFAISGAAPMSREVQEYFAGIGIAILDVYGASESTGGVTGNSIKAHQFGTVGHTLPGMDVRVFQKAEGGDSSAETGLGELREPARAKDIFHPSEEEQGEVCFRGRSVMLGYMANPKLGEEHVAEVERKNASAIDRHGWYHSGDKGACSKKNMFVITGRYKEIIIGAGGENIAPLPMEDAVKSLAPGVANAIMIGDKRKFNIMLITLRAEGATGEFPGSDNLDPDVRSIGSDSTRTIQKAMADSKWIEHVRDAISKTNANGDACQSNAWKIGRFTILPYDISIVGGELTPTLKLKRNFVDEKYKAVIDHVYAHEGDSKDLTYVPCPIDRVPRKISGDESAAGAASPEANVAEPVTAESGSPSEVTTEAKPANETDDAESKDAAAPLAAKVDTTVPDVAQPQAAS
- DHA production in yeast as compared to in the absence of the added acyl-CoA synthetase gene (yeast): increased DHA production

B3: ScACS-8: Schizochytrium acyl-CoA synthetase, SEQ ID NO:96/97 (protein, listed as Schizochytrium sp.)
chain: MDAEKVIKAGAAAGAAYLGWKYLDEKHGISHDLELARRLLKLKKEINERNTKRVFNVTNMWYEAYAKNPKKPALLYLDEVVTYQDMEDRSNQVANWLLSKGLKRGDTVALLMENRPEFVISWLGMTKIGVKVALINTSIKQKPLLHCLKISGCKIVLFGSELAEPILDIKDELADLGIELAAEGAREASPDWIEVVNPEIEASPKTATSPKLREGIGMQDVFGFIYTSGTTGLPKAAVILHQKMFSFGALMTNAFQCTQDDIVYTCLPLFHSAGGGLGIGIMLYTGATVVIKRKFSVTDFWSDCVKYKCTVVQYIGELCRYLVMAESRPEETQHKVRLAIGNGLRPEIWAEFQERFQIPQIGEFYGATEGNGALVQHCTKPEDRGAVGRMGSLLMRVTGVKFARFDVLEEAPVRGADGFCIECDVDEPGELLFPIRDNDPSSAFAGYNDPKATAKKIITDAFTKGDKYFRTGDLLSRDARGRIYFRDRIGDTFRCKGENVSTSEVAEVLSTYPGIEELNIYGVQIPNNEDGRFPCAALTPKDSDLSNVDLKGFYEHAKKNLPSYSIPMFIRVQPVMPVTATMKHQKVQLRKEGMDIHVIKDPMYWLHDVKKEYDPLTEEDYARIIGQRARL
- DHA production in yeast as compared to in the absence of the added acyl-CoA synthetase gene (yeast): increased DHA production

B4: ScACS-5: Schizochytrium acyl-CoA synthetase, SEQ ID NO:90/91 (protein, listed as Schizochytrium sp.)
chain: MLEMREEVVKHEGEAAHFKGVKMKVFPNGFQTMVDIFKVPFEKQVMKNDLLVDETGRMTFQEVFDTAAALGDALVNEYGVEKGDRVVALSKNRNEYIVTMIAATSVGAIFAPLNSYWKTEQLSYGLDDSGAKVVVCDADRYVQLEPLLDGRASALERVLLLRGPGTEKFRPNAKTTAFDEVISKHAGARMPPFPCQKDDPAMIMYTSGTTGNPKGVVLTHRSIGEAMTGAVAAMTYEKTLAATRAGETLPEPEDPSLSAFLLAVPLFHVTGHHCVGLLSIISCRKIVLMSKWDPKLALELIESERITNFTGVPTMALDLMTHPDFKKRDTSTLKSLGGGGAAPPSTMVNDIDKNFKQASPLQAWGMTETNGIATLTEGDMYRRKPESCGKAIPNVEIAIWNARDEPVPAGAEGELVIRGSTCLKEYWNKPEATAKSITAEGWFRTGDIGVIDEEGFLQLKGRSKEIIIRGGENISCVVVENAVYNHDDINEVAAIPVPHPTLGEEVGIAVFSQSGARPSLQSIRDVCGNLARYEMPTHIYYWPEQLPRGDTGKIHKRTILADIKAGKVKDEAVPASKL
- DHA production in yeast as compared to in the absence of the added acyl-CoA synthetase gene (yeast): increased DHA production
